The results in this text go back to patent US10919943B2, “Mutant proteins enabling agrochemical control of plant gene expression” (The Regents of the University of California, priority 2016, dated 2021).

This test deals with HAB1. Put plainly: Yeast two hybrid of pBD-PYR1 site saturation mutants with pACT-HAB1 on 10 μM ABA, β-galactosidase staining. In kind it is cell-based, Arabidopsis. The arrangement: key: x: Mutations in PYR1 that disrupt ABA-induced binding to PYR1 to HAB1. Particulars: S. cerevisiae Y190, 10 μM ABA; dead = lack of visible staining in comparison to wild type control. Summed up: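 S. cerevisiae Y190 co-expressing GAL4-DNA-binding-domain–PYR1 mutants and GAL4-activation-domain–HAB1 were spotted on SD (-Leu, -Trp) agar with 10 μM (+)-ABA for 2 days at 30° C. Colonies were chloroform-lysed and stained for β-galactosidase. Mutants lacking visible staining relative to wild type were scored as non-binding.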

B1: P148Q: PYR1 mutant (protein, UniProt O49686 1-191, looked up, variant P148Q)
Abscisic acid receptor PYR1: MPSELTPEERSELKNSIAEFHTYQLDPGSCSSLHAQRIHAPPELVWSIVRRFDKPQTYKHFIKSCSVEQNFEMRVGCTRDVIVISGLPANTSTERLDILDDERRVTGFSIIGGEHRLTNYKSVTTVHRFEKENRIWTVVLESYVVDMQEGNSEDDTRMFADTVVKLNLQKLATVAEAMARNSGDGSGSQVT
B1: the “Mutations in PYR1 that disrupt ABA-induced binding to PYR1 to HAB1” value (“Mutations” for short) is recorded as “x”.

B2: N151P: PYR1 mutant (protein, UniProt O49686 1-191, looked up, variant N151P)
Abscisic acid receptor PYR1: MPSELTPEERSELKNSIAEFHTYQLDPGSCSSLHAQRIHAPPELVWSIVRRFDKPQTYKHFIKSCSVEQNFEMRVGCTRDVIVISGLPANTSTERLDILDDERRVTGFSIIGGEHRLTNYKSVTTVHRFEKENRIWTVVLESYVVDMPEGPSEDDTRMFADTVVKLNLQKLATVAEAMARNSGDGSGSQVT
For the molecule B2, the “Mutations” value is “x”.

B3: G150I: PYR1 mutant (protein, UniProt O49686 1-191, looked up, variant G150I)
Abscisic acid receptor PYR1: MPSELTPEERSELKNSIAEFHTYQLDPGSCSSLHAQRIHAPPELVWSIVRRFDKPQTYKHFIKSCSVEQNFEMRVGCTRDVIVISGLPANTSTERLDILDDERRVTGFSIIGGEHRLTNYKSVTTVHRFEKENRIWTVVLESYVVDMPEINSEDDTRMFADTVVKLNLQKLATVAEAMARNSGDGSGSQVT
As for B3, the “Mutations” value was “x”.

B4: P148G: PYR1 mutant (protein, UniProt O49686 1-191, looked up, variant P148G)
Abscisic acid receptor PYR1: MPSELTPEERSELKNSIAEFHTYQLDPGSCSSLHAQRIHAPPELVWSIVRRFDKPQTYKHFIKSCSVEQNFEMRVGCTRDVIVISGLPANTSTERLDILDDERRVTGFSIIGGEHRLTNYKSVTTVHRFEKENRIWTVVLESYVVDMGEGNSEDDTRMFADTVVKLNLQKLATVAEAMARNSGDGSGSQVT
Take B4: the “Mutations” value was “x”.

B5: P148S: PYR1 mutant (protein, UniProt O49686 1-191, looked up, variant P148S)
Abscisic acid receptor PYR1: MPSELTPEERSELKNSIAEFHTYQLDPGSCSSLHAQRIHAPPELVWSIVRRFDKPQTYKHFIKSCSVEQNFEMRVGCTRDVIVISGLPANTSTERLDILDDERRVTGFSIIGGEHRLTNYKSVTTVHRFEKENRIWTVVLESYVVDMSEGNSEDDTRMFADTVVKLNLQKLATVAEAMARNSGDGSGSQVT
Consider B5, for which the “Mutations” value was “x”.

B6: P148I: PYR1 mutant (protein, UniProt O49686 1-191, looked up, variant P148I)
Abscisic acid receptor PYR1: MPSELTPEERSELKNSIAEFHTYQLDPGSCSSLHAQRIHAPPELVWSIVRRFDKPQTYKHFIKSCSVEQNFEMRVGCTRDVIVISGLPANTSTERLDILDDERRVTGFSIIGGEHRLTNYKSVTTVHRFEKENRIWTVVLESYVVDMIEGNSEDDTRMFADTVVKLNLQKLATVAEAMARNSGDGSGSQVT
For B6, the “Mutations” value was “x”.

B7: P148W: PYR1 mutant (protein, UniProt O49686 1-191, looked up, variant P148W)
Abscisic acid receptor PYR1: MPSELTPEERSELKNSIAEFHTYQLDPGSCSSLHAQRIHAPPELVWSIVRRFDKPQTYKHFIKSCSVEQNFEMRVGCTRDVIVISGLPANTSTERLDILDDERRVTGFSIIGGEHRLTNYKSVTTVHRFEKENRIWTVVLESYVVDMWEGNSEDDTRMFADTVVKLNLQKLATVAEAMARNSGDGSGSQVT
Take B7: the “Mutations” value was “x”.

B8: P148T: PYR1 mutant (protein, UniProt O49686 1-191, looked up, variant P148T)
Abscisic acid receptor PYR1: MPSELTPEERSELKNSIAEFHTYQLDPGSCSSLHAQRIHAPPELVWSIVRRFDKPQTYKHFIKSCSVEQNFEMRVGCTRDVIVISGLPANTSTERLDILDDERRVTGFSIIGGEHRLTNYKSVTTVHRFEKENRIWTVVLESYVVDMTEGNSEDDTRMFADTVVKLNLQKLATVAEAMARNSGDGSGSQVT
With B8, the “Mutations” value is reported as “x”.

B9: P148H: PYR1 mutant (protein, UniProt O49686 1-191, looked up, variant P148H)
Abscisic acid receptor PYR1: MPSELTPEERSELKNSIAEFHTYQLDPGSCSSLHAQRIHAPPELVWSIVRRFDKPQTYKHFIKSCSVEQNFEMRVGCTRDVIVISGLPANTSTERLDILDDERRVTGFSIIGGEHRLTNYKSVTTVHRFEKENRIWTVVLESYVVDMHEGNSEDDTRMFADTVVKLNLQKLATVAEAMARNSGDGSGSQVT
B9: the “Mutations” value is on record as “x”.

B10: P148C: PYR1 mutant (protein, UniProt O49686 1-191, looked up, variant P148C)
Abscisic acid receptor PYR1: MPSELTPEERSELKNSIAEFHTYQLDPGSCSSLHAQRIHAPPELVWSIVRRFDKPQTYKHFIKSCSVEQNFEMRVGCTRDVIVISGLPANTSTERLDILDDERRVTGFSIIGGEHRLTNYKSVTTVHRFEKENRIWTVVLESYVVDMCEGNSEDDTRMFADTVVKLNLQKLATVAEAMARNSGDGSGSQVT
As for B10, the “Mutations” value is “x”.

B11: G150V: PYR1 mutant (protein, UniProt O49686 1-191, looked up, variant G150V)
Abscisic acid receptor PYR1: MPSELTPEERSELKNSIAEFHTYQLDPGSCSSLHAQRIHAPPELVWSIVRRFDKPQTYKHFIKSCSVEQNFEMRVGCTRDVIVISGLPANTSTERLDILDDERRVTGFSIIGGEHRLTNYKSVTTVHRFEKENRIWTVVLESYVVDMPEVNSEDDTRMFADTVVKLNLQKLATVAEAMARNSGDGSGSQVT
Turning to B11, the “Mutations” value is reported as “x”.

B12: P148V: PYR1 mutant (protein, UniProt O49686 1-191, looked up, variant P148V)
Abscisic acid receptor PYR1: MPSELTPEERSELKNSIAEFHTYQLDPGSCSSLHAQRIHAPPELVWSIVRRFDKPQTYKHFIKSCSVEQNFEMRVGCTRDVIVISGLPANTSTERLDILDDERRVTGFSIIGGEHRLTNYKSVTTVHRFEKENRIWTVVLESYVVDMVEGNSEDDTRMFADTVVKLNLQKLATVAEAMARNSGDGSGSQVT
Turning to B12, the “Mutations” value was “x”.

B13: P148R: PYR1 mutant (protein, UniProt O49686 1-191, looked up, variant P148R)
Abscisic acid receptor PYR1: MPSELTPEERSELKNSIAEFHTYQLDPGSCSSLHAQRIHAPPELVWSIVRRFDKPQTYKHFIKSCSVEQNFEMRVGCTRDVIVISGLPANTSTERLDILDDERRVTGFSIIGGEHRLTNYKSVTTVHRFEKENRIWTVVLESYVVDMREGNSEDDTRMFADTVVKLNLQKLATVAEAMARNSGDGSGSQVT
As for B13, the “Mutations” value is “x”.

B14: P148F: PYR1 mutant (protein, UniProt O49686 1-191, looked up, variant P148F)
Abscisic acid receptor PYR1: MPSELTPEERSELKNSIAEFHTYQLDPGSCSSLHAQRIHAPPELVWSIVRRFDKPQTYKHFIKSCSVEQNFEMRVGCTRDVIVISGLPANTSTERLDILDDERRVTGFSIIGGEHRLTNYKSVTTVHRFEKENRIWTVVLESYVVDMFEGNSEDDTRMFADTVVKLNLQKLATVAEAMARNSGDGSGSQVT
As to B14, the “Mutations” value is reported as “x”.

B15: P148E: PYR1 mutant (protein, UniProt O49686 1-191, looked up, variant P148E)
Abscisic acid receptor PYR1: MPSELTPEERSELKNSIAEFHTYQLDPGSCSSLHAQRIHAPPELVWSIVRRFDKPQTYKHFIKSCSVEQNFEMRVGCTRDVIVISGLPANTSTERLDILDDERRVTGFSIIGGEHRLTNYKSVTTVHRFEKENRIWTVVLESYVVDMEEGNSEDDTRMFADTVVKLNLQKLATVAEAMARNSGDGSGSQVT
In the case of B15, the “Mutations” value is given as “x”.

B16: N151M: PYR1 mutant (protein, UniProt O49686 1-191, looked up, variant N151M)
Abscisic acid receptor PYR1: MPSELTPEERSELKNSIAEFHTYQLDPGSCSSLHAQRIHAPPELVWSIVRRFDKPQTYKHFIKSCSVEQNFEMRVGCTRDVIVISGLPANTSTERLDILDDERRVTGFSIIGGEHRLTNYKSVTTVHRFEKENRIWTVVLESYVVDMPEGMSEDDTRMFADTVVKLNLQKLATVAEAMARNSGDGSGSQVT
Turning to B16, the “Mutations” value was “x”.

B17: N151L: PYR1 mutant (protein, UniProt O49686 1-191, looked up, variant N151L)
Abscisic acid receptor PYR1: MPSELTPEERSELKNSIAEFHTYQLDPGSCSSLHAQRIHAPPELVWSIVRRFDKPQTYKHFIKSCSVEQNFEMRVGCTRDVIVISGLPANTSTERLDILDDERRVTGFSIIGGEHRLTNYKSVTTVHRFEKENRIWTVVLESYVVDMPEGLSEDDTRMFADTVVKLNLQKLATVAEAMARNSGDGSGSQVT
Consider B17, for which the “Mutations” value is on record as “x”.

B18: P148K: PYR1 mutant (protein, UniProt O49686 1-191, looked up, variant P148K)
Abscisic acid receptor PYR1: MPSELTPEERSELKNSIAEFHTYQLDPGSCSSLHAQRIHAPPELVWSIVRRFDKPQTYKHFIKSCSVEQNFEMRVGCTRDVIVISGLPANTSTERLDILDDERRVTGFSIIGGEHRLTNYKSVTTVHRFEKENRIWTVVLESYVVDMKEGNSEDDTRMFADTVVKLNLQKLATVAEAMARNSGDGSGSQVT
For the molecule B18, the “Mutations” value was “x”.

B19: P148Y: PYR1 mutant (protein, UniProt O49686 1-191, looked up, variant P148Y)
Abscisic acid receptor PYR1: MPSELTPEERSELKNSIAEFHTYQLDPGSCSSLHAQRIHAPPELVWSIVRRFDKPQTYKHFIKSCSVEQNFEMRVGCTRDVIVISGLPANTSTERLDILDDERRVTGFSIIGGEHRLTNYKSVTTVHRFEKENRIWTVVLESYVVDMYEGNSEDDTRMFADTVVKLNLQKLATVAEAMARNSGDGSGSQVT
For the molecule B19, the “Mutations” value is recorded as “x”.

B20: P148D: PYR1 mutant (protein, UniProt O49686 1-191, looked up, variant P148D)
Abscisic acid receptor PYR1: MPSELTPEERSELKNSIAEFHTYQLDPGSCSSLHAQRIHAPPELVWSIVRRFDKPQTYKHFIKSCSVEQNFEMRVGCTRDVIVISGLPANTSTERLDILDDERRVTGFSIIGGEHRLTNYKSVTTVHRFEKENRIWTVVLESYVVDMDEGNSEDDTRMFADTVVKLNLQKLATVAEAMARNSGDGSGSQVT
Regarding B20, the “Mutations” value is “x”.

B21: G150W: PYR1 mutant (protein, UniProt O49686 1-191, looked up, variant G150W)
Abscisic acid receptor PYR1: MPSELTPEERSELKNSIAEFHTYQLDPGSCSSLHAQRIHAPPELVWSIVRRFDKPQTYKHFIKSCSVEQNFEMRVGCTRDVIVISGLPANTSTERLDILDDERRVTGFSIIGGEHRLTNYKSVTTVHRFEKENRIWTVVLESYVVDMPEWNSEDDTRMFADTVVKLNLQKLATVAEAMARNSGDGSGSQVT
As for B21, the “Mutations” value is “x”.
